Values of other authors as cited in patent US5593962A, “Fibrillated calcitonin pharmaceutical compositions” (Ciba-Geigy Corporation, priority 1991, dated 1997).

Experiments:
[1] = physiological saline solutions or buffers

human calcitonin
stability in solution [1]: not stable | generation of neutralizing antibodies (after prolonged administration): not generating neutralizing antibodies | potency relative to salmon calcitonin (in vivo): less potent
